Reference: patent publication US20220002384A1 (published 2022)

Target: T1, AXL (R&D Systems cat#154-AL) (UniProt P30530 26-440)
T1 chain: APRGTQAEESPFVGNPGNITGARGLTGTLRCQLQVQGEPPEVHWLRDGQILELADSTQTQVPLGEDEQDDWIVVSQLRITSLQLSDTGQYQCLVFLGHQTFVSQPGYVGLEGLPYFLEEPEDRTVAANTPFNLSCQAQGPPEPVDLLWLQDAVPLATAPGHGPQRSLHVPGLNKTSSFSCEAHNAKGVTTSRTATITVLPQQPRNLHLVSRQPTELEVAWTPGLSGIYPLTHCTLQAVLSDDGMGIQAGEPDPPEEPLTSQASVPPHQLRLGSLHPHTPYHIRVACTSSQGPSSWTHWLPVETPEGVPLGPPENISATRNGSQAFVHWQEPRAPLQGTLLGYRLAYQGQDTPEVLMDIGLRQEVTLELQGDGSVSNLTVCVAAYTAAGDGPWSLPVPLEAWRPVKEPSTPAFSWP
Test: BLI

B1: AXL #44 (designed binder)
chain: NVSPPRRARVTDATETTITIRWEGRGVIGFQVDAVPANGQTPIQRTIKPDVRSYTITGLQPGTDYKIYLYTLPNIGTGHFSSSPVVIDAST
Work on B1 yielded a Kd of 4 nM.

B2: AXL #56 (designed binder)
chain: NVSPPRRARVTDATETTITISWRVSPSTVVGLQVDAVPANGQTPIQRTIKPDVRSYTITGLQPGTDYKIYLYTLNVIGGSAHASSPVVIDAST
Binder B2 has a Kd of 12 nM.
